Assay [1] has as its target T1, collagen triple helix repeat containing-1 (CTHRC1) protein (Homo sapiens (Human), UniProt Q96CG8 31-243).
T1 construct: The coated protein may in fact have been CTHRC1-His or CTHRC1-Fc
The assay can be described thus: indirect ELISA, CTHRC1 coated at 5 µg/mL, anti-human Fc-HRP. The method, then: The affinity of cCMAb45 and cCMAb96, which are anti-CTHRC1 chimeric antibodies, prepared in Example 1-3 to the CTHRC1 protein was verified. Indirect ELISA was performed to test the affinity of the antigens and antibodies.
100 μL of CTHRC1 was dispensed at a concentration of 5 μg/mL onto an immuno-plate and coated at 4° C. overnight. The next day, the coated CTHRC1 solution was discarded and blocked for 2 hours. Thereafter, the cCMAb45 and cCMAb96 antibodies were treated at different concentrations and reacted at room temperature for 2 hours, and the antibodies were discarded to remove the unbound antibodies, and then the plate was washed. The OD value was measured using the anti-human Fc-HRP as a second antibody that recognizes human constant regions. In particular, the higher OD value indicates higher affinity between CTHRC1 and the antibodies.

In assay [2] the target is T2, CTHRC1-His (Homo sapiens (Human), UniProt Q96CG8 30-243).
T2 construct: also called antigen CTHRC1-His
T2 sequence (Q96CG8 other isoform, or with tags, fused parts or gaps limits assumed): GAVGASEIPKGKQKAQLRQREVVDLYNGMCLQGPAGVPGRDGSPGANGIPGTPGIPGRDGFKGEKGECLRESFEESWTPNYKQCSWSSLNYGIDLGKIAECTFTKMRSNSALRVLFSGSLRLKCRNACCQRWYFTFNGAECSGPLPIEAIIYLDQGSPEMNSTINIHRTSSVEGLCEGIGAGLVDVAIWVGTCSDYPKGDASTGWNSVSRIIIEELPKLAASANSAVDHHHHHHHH
The assay is described as follows: indirect ELISA, CTHRC1-His coated, re-measurement.

Substitutions are numbered along the chain they refer to.

T1 sequence (Q96CG8 31-243 limits assumed): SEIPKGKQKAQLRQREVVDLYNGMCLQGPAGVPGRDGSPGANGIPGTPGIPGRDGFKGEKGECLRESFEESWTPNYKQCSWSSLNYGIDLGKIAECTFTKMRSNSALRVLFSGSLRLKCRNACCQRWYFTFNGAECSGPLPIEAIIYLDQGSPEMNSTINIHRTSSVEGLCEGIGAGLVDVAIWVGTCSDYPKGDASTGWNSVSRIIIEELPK

B1: cCMAb96 anti-CTHRC1 chimeric antibody (antibody, V domains shown)
VH: QVQLQQPGSELVRPGASVKLSCKASGYTFTSYWMHWVKQRPGQGLEWIGNIYPSSGTTNYDEKFKNKATLTVDTSSTTAYMHLSSLTSEDSAVYYCTTESYWGQGTTLTVSS
VL: DIVMTQSPSSLSASLGDTITITCHASQNINVWLSWYQQKPGNIPKLLIYKASNLHTGVPSRFSGSGSGTGFTLTISSLQPEDIATYYCQQGQSYPLTFGGGTKLEIK
notes: Detected with anti-human kappa light chain-HRP, so the light chain is kappa; also called chimeric 9E6
B1 returned a dissociation constant (Kd) in assay [1] of 430 pM.

B2: hCMAb96 humanized anti-CTHRC1 antibody (antibody, V domains shown)
VH: QVQLVQSGAEVKKPGASVKVSCKASGYTFTSYWMHWVRQAPGQGLEWIGYIYPSSGTTNYNQKFQGRVTITADESTSTAYMELSPLRSEDTAVYYCTTESYWGQGTTVTVSS
VL: B1 VL with V3Q, S34A, N42K, I43A, T56S, G70D, G100Q, L104V
notes: Humanized IgG made by CDR grafting and expressed in HEK293F; also called SA2770; humanized 9E6
Consider B2, for which, in assay [2], the binding result is given as “binds”.

B3: cCMAb45 anti-CTHRC1 chimeric antibody (antibody, V domains shown)
VH: EVQLQQSGPELVKPGASVKISCKASGYSFTDYIMLWVKQSHGKSLEWIGNINPYYGSTSYNLKFKGKATLTVDKSSSTAYMQLNSLTSEDSAVYYCARSGYGYDESAMDYWGQGTSVTVSS
VL: DVLMTQTPLSLPVNIGDQASISCKSTKSLLNSDGFTYLDWYLQKPGQSPQLLIYLVSNRFSGVPDRFSGSGSGTDFTLKISRVEAEDLGVYYCFQSNYLPLTFGSGTKLEIK
notes: Detected with anti-human kappa light chain-HRP, so the light chain is kappa; also called chimeric 4H5
Turning to B3, the affinity in assay [1], expressed as Kd, was 520 pM.

B4: hCMAb45 humanized anti-CTHRC1 antibody (antibody, V domains shown)
VH: QVQLVESGAEVKKPGASVKVSCKASGYSFTDYIILWVRQAPGQGLEWMGAINPYYGSTVYGQKFQGRLTITADGSMSTAYMELSSLRSEDTAVYYCARSGYGYDESAMDYWGQGTLVTVSS
VL: B3 VL with V2I, L3V, N14T, I15P, D17E, Q18P, K24R, T26S, L88V, S105Q
notes: Humanized IgG made by CDR grafting and expressed in HEK293F; also called SA2765; humanized 4H5
With B4, the binding result in assay [2] is “binds”.

(Values after patent US20220204599A1 (PRESTIGE BIOPHARMA, published 2022).)
